Laboratory results taken from PMC2755859.

Columns and labels:
pICln = pICln (UniProt P54105); assay: AUC
PRMT5cat (human) = PRMT5cat (human) (UniProt O14744); assay: AUC

pICln, sequence (P54105 whole entry): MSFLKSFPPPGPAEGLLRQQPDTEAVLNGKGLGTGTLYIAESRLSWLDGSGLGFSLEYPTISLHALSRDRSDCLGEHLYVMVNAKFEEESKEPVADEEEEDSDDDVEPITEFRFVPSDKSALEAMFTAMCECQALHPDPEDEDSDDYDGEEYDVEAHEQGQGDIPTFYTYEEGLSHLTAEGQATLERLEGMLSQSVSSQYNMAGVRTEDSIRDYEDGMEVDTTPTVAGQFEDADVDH
SmD3, sequence (P62318 whole entry): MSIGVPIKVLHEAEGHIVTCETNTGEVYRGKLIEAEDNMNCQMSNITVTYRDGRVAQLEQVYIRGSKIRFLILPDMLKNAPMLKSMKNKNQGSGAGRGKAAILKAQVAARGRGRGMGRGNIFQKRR

Substance	stoichiometry N (pICln)	Kd (PRMT5cat (human))	stoichiometry N (PRMT5cat (human))
SmD3 (from UniProt P62318 1-126) (natural protein)	1	–	–
PRMT5cat (from UniProt O14744 296-637) (domain or fragment)	–	20 µM	2
